The record followed here is US20110256132A1 (published 2011).

For experiment [1], the target named is T1, mature myostatin (recombinant, dimeric) (mouse polyprotein used for in-house …, UniProt O08689 268-376).
T1 sequence: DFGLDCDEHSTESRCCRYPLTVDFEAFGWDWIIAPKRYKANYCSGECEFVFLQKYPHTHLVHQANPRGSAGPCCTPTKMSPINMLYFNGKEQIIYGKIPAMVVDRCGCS
Briefly: cell-based or functional assay.

Experiment [2] concerns the target T1, mature myostatin (recombinant, dimeric). Briefly: cell-based or functional assay. The source holds these as a separate data set.
Experiment [3] has the same target. Nature of the experiment: cell-based or functional assay. This is another data set of the same source.
Experiment [4] shares this target. Nature of the experiment: BIAcore, low density myostatin surface, methods as in 4.3.
The target is the same in experiment [5]. Briefly: myostatin binding ELISA after 48 h at 37 C in 1% ammonium bicarbonate pH 9.0 (Examples 5.2, 4.2), A490.
Experiment [6] shares this target. Nature of the experiment: FORTEbio bio-layer interferometry, myostatin amine-coupled to sensor, 20 nM antibody, 1:1 fit. How it is done:
The affinity of 10B3 mouse parental and H2L2-C91S developability variant for recombinant myostatin was also assessed by FORTEbio™ (bio-layer inferometry) analysis. FORTEbio™ analyses were carried out by antigen capture. Myostatin (in-house, see above at 1.1) was coupled onto amine reactive biosensors by primary amine coupling in accordance with the manufacturer's instructions. Antibodies were then captured onto this surface at 20 nM concentrations. The data was analysed using the evaluation software inherent in the machine and the data analysed using 1:1 fit (see Table 16). Due to the limited number of myostatin molecules bound to the sensor surface and the low antibody concentration, avidity effects are reduced, enabling a more accurate measure of affinity compared to the Biacore analyses. […] However, due to the nature of the binding of the antibodies to myostatin, these values are mainly used for ranking purposes, and the affinity may not be representative of the affinity in vivo.

The target is the same in experiment [7]. Nature of the experiment: myostatin binding ELISA with purified antibody, 10 ng/well recombinant myostatin coated, anti-human kappa HRP, A490 (Examples 4.1, 4.2); the text says the CHOK1 material was hard to quantify. How it is done:
(§1) The myostatin binding ELISA was carried out approximately according to this protocol. A 96-well ELISA plate was coated at 4° C. overnight with 10 ng/well recombinant myostatin. This plate was then washed 3-times in wash buffer (PBS, 0.1% Tween-20). The wells were blocked for 1 hour at room temperature with block solution (PBS, 0.1% Tween-20+1% bovine serum albumin [BSA]), before washing 3-times in wash buffer. Antibodies were then titrated out to a suitable concentration range (approximately 100 to 0.001 μg/ml), added to the plate and incubated for 1 hour at room temperature. The plate was then washed 3-times in wash buffer. An anti-mouse IgG HRP-conjugated antibody (P0260 by Dako, this reagent was used according to the manufacturer's instructions) was used to detect binding of mouse antibodies, such as 10B3. An anti-human kappa light chain HRP-conjugated antibody (A7164 by Sigma Aldridge, this reagent was used according to the manufacturer's instructions) was used to detect binding of humanized or chimeric antibodies, such as 10B3 chimera or H0L0. The plate was then washed 3-times in wash buffer and developed with an OPD substrate (from Sigma, used according to the manufacturer's instructions) and read at 490 nm on a plate reader.

Experiment [8] has the same target. Briefly: myostatin binding ELISA after 48 h at 37 C in 1% ammonium bicarbonate pH 9.0 (Examples 5.2, 4.2), A490. The source holds these as a separate data set.
For experiment [9] the target is unchanged. Nature of the experiment: myostatin binding ELISA after 48 h at 37 C in PBS (Examples 5.2, 4.2), A490.
Experiment [10] has the same target. Briefly: BIAcore, medium density myostatin surface, antibody analyte, 1:1 model (poor fits). As to the method:
(§2) Purified H0L0, H1L2 and H2L2 bound recombinant myostatin by BIAcore™ Recombinant myostatin was immobilised at three different densities (low, medium and high, to give R-max values of approximately 35, 120 and 350 RU's respectively) onto a BIAcore™ chip. Antibodies were passed over at 256, 64, 16, 4 and 1 nM. 0 nM antibody was used for double referencing and data was fitted to the 1:1 model.

The target is the same in experiment [11]. Briefly: cell-based or functional assay. The source holds these as a separate data set.
Experiment [12] has the same target. Briefly: BIAcore, low density myostatin surface, antibody analyte, 1:1 model. As to the method: as §2
Experiment [13] shares this target. Nature of the experiment: myostatin binding ELISA with purified antibody, 10 ng/well recombinant myostatin coated, anti-human kappa HRP, A490 (Examples 4.1, 4.2). How it is done: as §1
The target is the same in experiment [14]. Briefly: BIAcore, high density myostatin surface, antibody analyte, 1:1 model (poor fits). How it is done: as §2
Experiment [15] has the same target. Nature of the experiment: ProteOn XPR36, antibody captured from supernatant, myostatin analyte. How it is done:
The initial kinetic analyses for the CDRH3 screen were carried out on the ProteOn XPR36 (Biorad Laboratories). For residues R95 to P100_B, analysis was carried out using a Protein A/G capture surface (Pierce 21186) was used and for residues A100_C to V102, an anti-human IgG surface was used (Biacore/GE Healthcare BR-1008-39). Both capture surfaces were prepared similarly using primary amine coupling to immobilise the capture molecule on a GLM chip (Biorad Laboratories 176-5012). CDRH3 variants were captured directly on either the Protein A/G or anti-human IgG surface (depending on the residue mutated) from tissue culture supernatants from transient transfections expressing the particular variant of interest. After capture, in-house recombinant human myostatin (see 1.1 above) was used as an analyte at 256 nM, 32 nM, 4 nM, 0.5 nM and 0.0625 nM, with a buffer injection alone (i.e. 0 nM) used to double reference the binding curves. Following the myostatin binding event, the capture surfaces were regenerated: for the Protein A/G capture surface, 100 mM phosphoric acid was used to regenerate the capture surface; and for the anti-human IgG surface, 3M MgCl₂ was used to regenerate the capture surface; the regeneration removed the previously captured antibody ready for another cycle of capture and binding analysis. […]

Changes are numbered by the printed parent chain. Numbers in names are those of the source. Where two headings read alike, the source gives them in different places.

B1: H2L2 C91S (H2L2-C91S) (antibody, human IgG1, kappa, V domains shown)
VH: QVQLVQSGAEVKKPGASVKVSCKASGYSFTGYFMHWVRQAPGQGLEWMGNIYPYNGVSNYNQRFKARVTMTTDTSTSTAYMELRSLRSDDTAVYYCARRYYYGTGPADWYFDVWGQGTLVTVSS
VL: DIQMTQSPSSLSASVGDRVTITCKASQDINSYLSWFQQKPGKAPKSLIYRANRLVDGVPSKFSGSGSGTDYTLTISSLQPEDFATYYCLQSDEFPLTFGQGTKLEIKR
notes: Humanised, human IgG1/kappa; also called base molecule; base H2L2-C91S
B1: the “Mean IC50, A204 in vitro activity assay” value in [1] stood at 4.08 nM. For the same molecule, the “Mean IC50, A204 in vitro activity assay (5 nM myostatin)” value in experiment [2] turned out to be 5.14 nM. In experiment [3], the “Mean IC50, A204 in vitro activity assay” value turned out to be 9.26 nM. In addition, in experiment [4], the dissociation constant Kd was 16.6 nM. In addition, the concentration for a half-maximal effect (EC50 (read off the curve)) in experiment [5] was approximately 1 nM. In [6], the Kd is 0.073 nM, the koff was 2.99e-05 s⁻¹ and the association rate constant (kon) was found to be 410000 M⁻¹ s⁻¹.

B2: H2L2 (antibody, human IgG1, kappa, V domains shown)
VH: B1 VH
VL: B1 VL with S91C
notes: Humanised, human IgG1 wild type/kappa
B2: the “EC50 (read off the curve)” value in experiment [7] is approximately 0.1 µg/mL; in experiment [8], approximately 0.6 nM; in experiment [9] it was approximately 0.7 nM; in experiment [13] it was approximately 0.09 µg/mL. Further, the Kd in experiment [10] stood at 3 nM; in [12], 8.37 nM; in experiment [14], 1.47 nM; in [4] it was 12 nM. Also, the koff in experiment [10] turned out to be 0.000737 s⁻¹; in experiment [12], 0.00268 s⁻¹; in [14], 0.000216 s⁻¹. The on-rate constant (kon) in experiment [10] came out at 246000 M⁻¹ s⁻¹; in experiment [12] it was 321000 M⁻¹ s⁻¹; in experiment [14], 147000 M⁻¹ s⁻¹. Moreover, the “Mean IC50, A204 in vitro activity assay” value was 8.6 nM in experiment [11] and 10.1 nM in [3].

B3: CDRH3 variant F100G_S of H2L2-C91S (antibody, human IgG1, kappa, V domains shown)
VH: B1 VH with F111S
VL: B1 VL
notes: tested only in the supernatant screen
B3: the binding result in experiment [15] is given as “binds”.
